According to the MegaScale stability set (Tsuboyama et al. 2023):

B1: 5KPH (parent)
chain: EEKRQVKQVAKEKLLEQSPNSKVQVRRVQKQGNTIRVELELRTNGKKENYTVEVERQGNTWTVKRITRT

Variants of: B1
Assay: folding stability dG (cDNA display proteolysis); higher = more stable
Settings: PBS, room temperature

Folding stability dG [kcal/mol] of substitutions, site by site:
S21: F 2.65 | N 2.38 | Y 2.67 | I 2.46 | W 2.89 | E 1.96 | M 2.75 | L 2.57 | C 3.12 | K 2.16 | T 2.81 | D 2.23 | A 3.98 | P 2.37 | V 3.17 | R 2.18 | H 2.6 | G 4.01 | Q 2.31
R26: E 2.58 | D 2.16 | C 3.65 | A 3.09
P19: Q 2.85 | H 2.92 | V 2.82 | Y 2.13 | G 2.7 | E 2.5 | K 3.03 | T 2.69 | C 3.04 | I 2.83 | L 2.64 | W 2.15 | A 2.83 | S 2.77 | N 2.57 | F 2.54 | M 2.71 | R 2.76 | D 2.31
S18: I 3.93 | Y 4.74 | Q 3.82 | K 3.83 | G 2.56 | C 3.86 | M 4.05 | P 1.99 | F 4.68 | R 3.82 | L 4.03 | T 3.35 | W 4.39 | A 3.8 | N 4.47 | H 4.66 | V 3.94 | D 3.23 | E 3.57
K22: H 3.91 | I 4.01 | L 3.99 | D 3.8 | P 2.37 | T 4.16 | Q 4.05 | N 3.62 | E 4.13 | F 4.16 | W 4.06 | R 3.85 | G 3.2 | M 3.85 | Y 4.05 | V 4.01 | C 3.65 | S 3.83 | A 3.71
Q17: L 4.54 | T 3.83 | N 3.69 | Y 4 | S 3.59 | K 3.77 | W 3.6 | P 1.82 | V 3.91 | M 4.52 | R 3.92
V25: M 2.63 | R 1.71 | I 3.76 | T 2.85 | E 1.74 | Y 2.81 | H 2.19 | K 1.3 | D 1.17 | W 2.7 | G 1.64 | A 2.95 | F 3.77 | S 1.84 | L 2.91 | N 1.72 | P 2.2 | C 3.09 | Q 1.67
Q24: V 4.25 | D 3.53 | W 4.4 | G 3.09 | H 4.28 | Y 4.48 | I 4.3 | F 4.47 | S 4.13 | N 3.77 | P 1.25 | E 3.67 | C 3.83 | R 4.41 | L 4.38 | A 3.97 | T 4.24 | M 4.43 | K 4.33
N20: K 3.55 | S 3.81 | R 3.5 | A 3.77 | T 3.6 | F 3.35 | H 3.64 | M 3.58 | D 3.66 | L 3.6 | W 2.38 | Y 3.32 | P 2.3 | G 4.21 | I 3.03 | Q 3.62 | V 2.78 | C 3.53 | E 3.53
V23: K 1.37 | F 2.6 | R 1.43 | M 3.08 | W 2.67 | A 3.6 | Q 1.79 | H 1.57 | D 1.23 | L 3.07 | C 3.17 | T 2.51 | G 1.59 | E 1.2 | S 2.02 | Y 1.94 | I 3.9 | N 1.26 | P 2.68
